{"source": "patent US20230349919A1", "key": {"[1]": {"target": "IgE (lambda light chain) secreted by U266 cells", "assay": "flow cytometry, Ramos + U266 mixed 100X1 with the StAv-FcεRIα capture complex; 94.6 % of the cells lie in the IgM+ gate at low secreted IgE"}, "[2]": {"target": "IgE (lambda light chain) secreted by U266 cells", "assay": "flow cytometry, U266 cells alone with the StAv-FcεRIα capture complex; x axis Secreted IgE, y axis IgM"}, "Secreted IgG": {"target": "Secreted IgG", "assay": "flow cytometry, human bone marrow plasma cells (CD20- CD38++) with NHS-biotin, StAv-anti-human Igk and anti-IgG; controls in FIG. 21B (D00065): without NHS-Biotin 1.2%, without StAv-IgKappa 0.72%, without anti-IgG 0%"}}}
{"substance": "secreted IgE capture reagent: streptavidin conjugated to the ectodomain of the high affinity IgE receptor FcεRIα (from UniProt P12319 26-205)", "values": [{"measurement": "% of cells in the secreted IgE+ / IgM- gate", "setting": "[1]", "value": 2.4, "unit": "%"}, {"measurement": "% of cells in the secreted IgE+ / IgM- gate", "setting": "[2]", "value": 94.9, "unit": "%"}]}
{"substance": "streptavidin coupled to anti-human Igk (antibody)", "values": [{"measurement": "% IgG+ of plasma cells", "setting": "Secreted IgG", "value": 5.2, "unit": "%"}]}
